The assay deals with Todarodes pacificus hemocyanin (Todarodes pacificus). The experiment in a line: cryo-EM structure; single-particle cryo-EM of purified hemocyanin, 2.9 mg/ml, 100 mM HEPES pH 7.5, 200 mM CaCl2; asymmetric refinement (no symmetry imposed), overall 5.1 Å; model by rigid-body fitting.

The stoichiometry N is a count of units in the complex or per binding partner.

Consider “Todarodes pacificus hemocyanin (natural protein)”, for which the stoichiometry N is 10.

(Values after publication PMC6503924.)
